Measured values reported in patent US20230285581A1.

Assays:
[1] = target: mouse MSR1 on RAW264.7 cells (mouse) (UniProt P30204); assay: flow cytometry, RAW264.7 cells, 10 ug/mL
[2] = target: full length monkey MSR1 on HEK293.mfMSR1 cells (Macaca fascicularis); assay: ECL cell binding, HEK293.mfMSR1 cells
[3] = target: human MSR1 extracellular domain expressed with a N-terminal nonahistidine tag (His9-hMSR1; R&D Systems, Cat #2708-MS) (human) (UniProt P21757); assay: competition ELISA; 1 µM antibody, competitor 10 nM Ox-LDL, plate-coated His9-hMSR1
Sequence of human MSR1 extracellular domain expressed with a N-terminal nonahistidine tag (His9-hMSR1; R&D Systems, Cat #2708-MS) (human) (P21757 other isoform, or with tags, fused parts or gaps): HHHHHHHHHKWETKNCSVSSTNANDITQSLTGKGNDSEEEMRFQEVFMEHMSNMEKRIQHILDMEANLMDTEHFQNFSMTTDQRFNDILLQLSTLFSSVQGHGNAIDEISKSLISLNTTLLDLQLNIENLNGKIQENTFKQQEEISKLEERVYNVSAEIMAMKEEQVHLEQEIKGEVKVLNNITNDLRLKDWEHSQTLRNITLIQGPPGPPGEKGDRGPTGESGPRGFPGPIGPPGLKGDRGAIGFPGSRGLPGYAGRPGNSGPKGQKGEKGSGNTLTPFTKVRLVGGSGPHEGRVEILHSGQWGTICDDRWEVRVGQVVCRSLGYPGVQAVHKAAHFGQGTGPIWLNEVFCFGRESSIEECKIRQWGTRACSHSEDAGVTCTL

[4] = target: human MSR1 extracellular domain expressed with a N-terminal nonahistidine tag (His9-hMSR1; R&D Systems, Cat #2708-MS) (human) (UniProt P21757); assay: competition ELISA; 300 nM antibody, competitor biot-AGE-BSA, plate-coated His9-hMSR1
[5] = target: endogenously expressed human MSR1 on PMA-treated THP-1 cells (human) (UniProt P21757); assay: ECL cell binding, PMA-treated THP-1 cells
Sequence of endogenously expressed human MSR1 on PMA-treated THP-1 cells (human) (P21757 whole entry): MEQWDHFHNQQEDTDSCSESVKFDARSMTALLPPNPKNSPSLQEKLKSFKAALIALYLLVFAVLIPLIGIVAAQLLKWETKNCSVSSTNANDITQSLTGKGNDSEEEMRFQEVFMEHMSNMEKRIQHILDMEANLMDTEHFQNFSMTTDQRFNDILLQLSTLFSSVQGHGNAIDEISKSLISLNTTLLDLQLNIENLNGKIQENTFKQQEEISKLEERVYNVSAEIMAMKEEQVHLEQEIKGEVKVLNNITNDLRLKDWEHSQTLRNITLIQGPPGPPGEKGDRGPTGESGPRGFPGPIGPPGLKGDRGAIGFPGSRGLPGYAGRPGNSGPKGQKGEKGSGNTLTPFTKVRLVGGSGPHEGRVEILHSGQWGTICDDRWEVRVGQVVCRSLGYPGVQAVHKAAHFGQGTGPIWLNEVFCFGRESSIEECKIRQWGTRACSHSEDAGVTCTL

[6] = target: full length human MSR1 with a C-terminal Myc tag on HEK293.Myc.hMSR1 cells (human) (UniProt P21757); assay: ECL cell binding, HEK293.Myc.hMSR1 cells
Sequence of full length human MSR1 with a C-terminal Myc tag on HEK293.Myc.hMSR1 cells (human) (P21757 whole entry, the tested form may be a part): as the sequence (P21757 whole entry) above

[7] = target: human MSR1 extracellular domain expressed with a N-terminal nonahistidine tag (His9-hMSR1; R&D Systems, Cat #2708-MS) (human) (UniProt P21757); assay: competition ELISA; 100 nM antibody, competitor Ac-LDL, plate-coated His9-hMSR1
[8] = target: human MSR1 extracellular domain expressed with a N-terminal nonahistidine tag (His9-hMSR1; R&D Systems, Cat #2708-MS) (human) (UniProt P21757); assay: competition ELISA; 500 nM antibody, competitor 10 nM Ox-LDL, plate-coated His9-hMSR1

Sequence of mouse MSR1 on RAW264.7 cells (mouse) (P30204 whole entry): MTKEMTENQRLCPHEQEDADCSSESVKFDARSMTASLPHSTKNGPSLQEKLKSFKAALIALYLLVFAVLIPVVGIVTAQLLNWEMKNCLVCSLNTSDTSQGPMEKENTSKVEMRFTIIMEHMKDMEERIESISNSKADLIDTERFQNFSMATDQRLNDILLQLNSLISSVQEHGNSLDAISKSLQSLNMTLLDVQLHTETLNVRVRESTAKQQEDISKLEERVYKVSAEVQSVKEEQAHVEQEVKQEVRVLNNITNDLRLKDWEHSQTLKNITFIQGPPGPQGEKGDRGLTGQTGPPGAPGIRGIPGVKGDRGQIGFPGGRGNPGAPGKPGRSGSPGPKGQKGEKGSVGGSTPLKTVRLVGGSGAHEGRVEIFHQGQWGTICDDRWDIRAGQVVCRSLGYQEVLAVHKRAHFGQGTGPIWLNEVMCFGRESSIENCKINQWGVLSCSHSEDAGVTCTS
Sequence of full length monkey MSR1 on HEK293.mfMSR1 cells (Macaca fascicularis) (chain, as listed by the source): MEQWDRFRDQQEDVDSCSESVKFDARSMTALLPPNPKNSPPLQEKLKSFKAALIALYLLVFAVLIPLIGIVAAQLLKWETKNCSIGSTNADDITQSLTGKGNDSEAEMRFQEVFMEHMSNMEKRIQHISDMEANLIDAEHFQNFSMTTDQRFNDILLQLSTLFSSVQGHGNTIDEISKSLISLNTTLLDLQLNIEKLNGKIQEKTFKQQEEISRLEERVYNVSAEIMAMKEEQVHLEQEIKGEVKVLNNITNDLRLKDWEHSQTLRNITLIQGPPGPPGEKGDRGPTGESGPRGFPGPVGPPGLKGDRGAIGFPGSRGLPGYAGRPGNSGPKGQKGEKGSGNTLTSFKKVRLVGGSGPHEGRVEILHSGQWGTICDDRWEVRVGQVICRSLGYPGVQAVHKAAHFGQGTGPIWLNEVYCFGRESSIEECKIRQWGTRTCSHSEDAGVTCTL

Binder | MFI [1] | S/N [1] | ratio of 11 nM antibody binding signal (RLU) to isotype control [2] | % Blocking [3] | % Blocking [4] | ratio of 11 nM antibody binding signal (RLU) to isotype control [5] | ratio of 11 nM antibody binding signal (RLU) to isotype control [6] | % Blocking [7] | % Blocking [8]
H1H27729P-N297Q (antibody, human IgG1, V domains shown) VH: QVQLVESGGGLVKPGGSLRLSCAASGFIFSDYYMSWIRQAPGKGLEWVSYISSSGTTIYGDSVKGRFTMSRDNAKNSLYLQMNSLRAEDTAVYYCARNYALFDYWGQGTLVTVSS VL: DIQMTQSPSSLSASVGDRVTITCQASQDISKYLNWYQQKPGKAPKLLIYYTSNLETGVPSRFSGSGSGTDFTFTISSLQPEDIATYYCHQSDYLPFTFGPGTKVDIKR | 3480 | 1 | 6 | 36% | 15% | 8 | 17 | 8% | –
H1H27734P-N297Q (antibody, human IgG1, V domains shown) VH: EVQLVESRGGLVQPGGSLRLSCAASGFTFSSYAMSWVRQAPGKGLEWVSAISGSGGSTFYADSVKGRFTISRDNSKNTVYLQMNSLRAEDTAVYYCAKALVLRFLEWLGDYWGQGTLVTVSS VL: DIQMTQSPSTLSASVGDRVTITCRASQSISSWLAWFQQKPGKAPKLLIYKASSLESGVPSRFSGSGSGTEFTLTISSLQPDDFATYYCQQYKSYWTFGQGTKVEIKR | 4780 | 1 | 28 | -15% | -4% | 21 | 40 | -38% | –
H1H21234N-N297Q (antibody, human IgG1, V domains shown) VH: QVQLQESGPGLVKPSETLSLTCTVTGGSISRNYWSWIRQPPGKGLEWIGYIYYSGSIDYNPSLKSRVTISVDTSKNQFSLKLSSMTAADTAVYYCARDRWNWKYGMDVWGQGTTVIVSS VL: EIVLTQSPGTLSLSPGERATLSCRASQTVRNNYLAWYHQKPGQAPRLLIYGASSRATGIPDRFSGSGSGTDFTLTISRLEPEDFTVYYCHQYGNSPWTFGQGTKMEIKR | 7050 | 3 | 35 | – | -27% | 25 | 43 | 75% | 49%
H1H21234N (antibody, human IgG1, V domains shown) VH: QVQLQESGPGLVKPSETLSLTCTVTGGSISRNYWSWIRQPPGKGLEWIGYIYYSGSIDYNPSLKSRVTISVDTSKNQFSLKLSSMTAADTAVYYCARDRWNWKYGMDVWGQGTTVIVSS VL: EIVLTQSPGTLSLSPGERATLSCRASQTVRNNYLAWYHQKPGQAPRLLIYGASSRATGIPDRFSGSGSGTDFTLTISRLEPEDFTVYYCHQYGNSPWTFGQGTKMEIKR | – | – | 31 | – | 21% | 18 | 32 | 70% | 98%
H1H21227N-N297Q (antibody, human IgG1, V domains shown) VH: QVQLVQSGAEVKKPGASVKVSCKVSGYTLTELSIHWVRQVPGKGLEWMGGFDPEEGETIFAQEFRDRVTLTEDTSPDTAYMELSSLKSEDAAVYYCTTPRYCNNGICYDYWGQGTLVTVSS VL: DIQMTQSPSSLSASVGDRVTITCRASQSISNYLNWYQQKPGKAPKLLIYTASSLQSGVPSRFSGSGSGTDFTLTISSLQTEDFATYYCQQSYSNFPITFGQGTRLEIKR | 12800 | 5 | 23 | – | 96% | 5 | 37 | 105% | 97%
H1H21231N (antibody, human IgG1, V domains shown) VH: EVQLVESGGGLVQPGGSLRLSCAASGFTFSDHYMDWVRQAPGKGLEWVGRTRNKANSHTTEYTASVTGRFTISRDDSRNSLYLQMNSLKTEDTAVYYCVRAGIIGTLFDYWGQGTLVTVSS VL: DIQMTQFPSSLSASVGDRVTITCRASQSISSFLNWFQQKPGKAPKFLIYAASSLQSGVPSRFSGSGSGTDFTLTISSLQPEDFATYYCQQSYSSPPITFGQGTRLEIKR | – | – | 75 | – | -44% | 42 | 61 | -62% | 22%
H1H21227N-N297D (antibody, human IgG1, V domains shown) VH: QVQLVQSGAEVKKPGASVKVSCKVSGYTLTELSIHWVRQVPGKGLEWMGGFDPEEGETIFAQEFRDRVTLTEDTSPDTAYMELSSLKSEDAAVYYCTTPRYCNNGICYDYWGQGTLVTVSS VL: DIQMTQSPSSLSASVGDRVTITCRASQSISNYLNWYQQKPGKAPKLLIYTASSLQSGVPSRFSGSGSGTDFTLTISSLQTEDFATYYCQQSYSNFPITFGQGTRLEIKR | – | – | 25 | – | 97% | 6 | 34 | 101% | 99%
H1H21231N-N297Q (antibody, human IgG1, V domains shown) VH: EVQLVESGGGLVQPGGSLRLSCAASGFTFSDHYMDWVRQAPGKGLEWVGRTRNKANSHTTEYTASVTGRFTISRDDSRNSLYLQMNSLKTEDTAVYYCVRAGIIGTLFDYWGQGTLVTVSS VL: DIQMTQFPSSLSASVGDRVTITCRASQSISSFLNWFQQKPGKAPKFLIYAASSLQSGVPSRFSGSGSGTDFTLTISSLQPEDFATYYCQQSYSSPPITFGQGTRLEIKR | 3580 | 1 | 69 | – | -50% | 45 | 64 | -60% | 26%
H1H21227N (antibody, human IgG1, V domains shown) VH: QVQLVQSGAEVKKPGASVKVSCKVSGYTLTELSIHWVRQVPGKGLEWMGGFDPEEGETIFAQEFRDRVTLTEDTSPDTAYMELSSLKSEDAAVYYCTTPRYCNNGICYDYWGQGTLVTVSS VL: DIQMTQSPSSLSASVGDRVTITCRASQSISNYLNWYQQKPGKAPKLLIYTASSLQSGVPSRFSGSGSGTDFTLTISSLQTEDFATYYCQQSYSNFPITFGQGTRLEIKR | – | – | 26 | – | 99% | 7 | 37 | 105% | 100%

Next, values leading:

MFI [1] | S/N [1] | ratio of 11 nM antibody binding signal (RLU) to isotype control [2] | % Blocking [3] | % Blocking [4] | ratio of 11 nM antibody binding signal (RLU) to isotype control [5] | ratio of 11 nM antibody binding signal (RLU) to isotype control [6] | % Blocking [7] | % Blocking [8] | Binder
3630 | 1 | 21 | -31% | -2% | 13 | 26 | -44% | – | H1H27747P-N297Q (antibody, human IgG1, V domains shown) VH: QVQLVESGGAVVQPGRSLRLSCAASGFTFSYYGMHWVRQAPGKGLEWVAVISYDGSKKYYADSVKGRFTISRDNSKNTLYLQMNSLRAEDTAVYYCAKDLTVDFYYGMDVWGQGTTVTVSS VL: DIQMTQSPSSVSASVGDRVTITCRASQGISSWLAWYQQKPGKAPKLLIYATSSLQSGAPSRFSGSGSGTDFTLTISSLQPEDFATYFCQQANSFPYTFGQGTKLEIKR
5410 | 1 | 53 | -44% | -9% | 66 | 55 | -42% | – | H1H27754P-N297Q (antibody, human IgG1, V domains shown) VH: EVQLVESGGGLVQPGGSLRLSCAASGFTFRTYAMTWVRQAPGKGLDWVSAITGDGGNTYYADSVKGRFTISRDNSKNTLYLQMNSLRAEDTAIYYCAKDQRFSFALYYFDYWGQGTLVTVSS VL: DIQMTQSPSSVSASVGDRVTITCRASQGISSWLAWYQQKPGNAPKLLIYAAFSLQSGVPSRFSGSGSGTDFTLTISSLQPEDFATYYCQQANNFPWTFGQGTKVEIKR
3270 | 1 | 20 | -41% | -9% | 9 | 22 | -47% | – | H1H27739P-N297Q (antibody, human IgG1, V domains shown) VH: EVQLVESGGGLVQPGGSLRLSCTASGFTFSSYAMSWVRQAPGKGLEWVSAISGTGSSTYFTDSVKGRFAISRDNSKNTLYLQMNSLRAEDTAVYYCAKDGEWLSTVTLFDYWGQGTLVTVSS VL: EIVMTQSPATLSVSPGERATLSCRASQSVSSNLAWYQQKPGQAPRLLIYGASTRATGIPARFSGSGSGTDFTLTISSLQSEDFALYYCQQYFIWPPHPTFGPGTKVDIKR
– | – | 45 | – | 16% | 8 | 35 | 65% | 96% | H2aM25695N (antibody, mouse IgG2a, V domains shown) VH: QVQLQESGPGLVKPSETLSLTCTVTGGSISRNYWSWIRQPPGKGLEWIGYIYYSGSINYNPSLKSRVTISVDMSKNQFSLKLNSVTAADTAVYYCARDRWNWKYGMDVWGQGTTVIVSS VL: EIVLTQSPGTLSLSPGERATLSCRASQTVRNSYLAWYHQKPGQAPRLLIYGASSRATGIPDRFSGSGSGTDFTLTISRLEPEDFAVYYCQQYGSSYWTFGQGTKMEIKR
